The stoichiometry N is the number of molecules, sites or subunits per partner or assembly.

This passage reports stoichiometry N results from article PMC3141052.

The target in the experiment is P domain protein of norovirus VA207 (GII.9), amino acid 222-537 (norovirus VA207 (GII.9)). As to the kind of experiment: crystal structure; native P protein (P2(1)2(1)2) and its complexes with Le^y or SLe^x tetrasaccharide (P2(1)2(1)2(1)); hanging drop, PEG 3350, 50 mM magnesium formate.

“P domain protein of norovirus VA207 (GII.9), amino acid 222-537 (domain or fragment)” returned a stoichiometry N of 2.
